Data: US20100119478A1 (PROBIODRUG, published 2010)

T1: 09 DAVNAPL
T1 construct: member of group m23; also called PepSpot spot 09
T1 peptide: DAVNAPL

T2: 11 EKLTGPDKAVT
T2 construct: member of group m23; also called PepSpot spot 11
T2 peptide: EKLTGPDKAVT

T3: 07 AQPDAVNAPL
T3 construct: member of group m23; also called PepSpot spot 07
T3 peptide: AQPDAVNAPL

T4: 16 LAQDALNVPST
T4 construct: member of group m23; also called PepSpot spot 16
T4 peptide: LAQDALNVPST

B1: monoclonal antibody 332-4B8 (antibody, V domains shown)
VH: EVQLQQSGPELEKPGASVKISCKASGYSFTGYNMNWVKQNNGKSLEWIGNITPYYGSTSYNQKFKGRVTLTVDKSSSTAYMQLKSLTSEDSAVYFCLLWLRRGDYAMDYWGQGTSVTVSS
VL: DVLMTQTPLSLPVSLGDQASISCKSSQSIVHSNGNTYLEWYLQKPGQSPKLLIYKVFNRFSGVPDRFSGSGSGTDFTLKISRVEAEDLGVYYCFQGSHVPYTFGGGTKLEIKR
notes: Mouse IgG1 from hybridoma, Protein-G purified; also called Clone 4B8; 322-4B8
B2: monoclonal antibody 348-2C9 (antibody, V domains shown)
VH: EVQLQQSGPELVKPGASVKMSCKASGYTFTDYYMDWVKQSHGESFECIGRVNPYNGGTSYNQKFKGKATLTVDKSSSTAYMELNSLTSEDSAVYYCARLGSSYRWGQGTTLTVSS
VL: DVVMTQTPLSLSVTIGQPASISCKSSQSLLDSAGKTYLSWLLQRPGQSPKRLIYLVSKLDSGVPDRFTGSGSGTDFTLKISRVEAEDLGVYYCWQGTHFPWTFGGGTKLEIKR
notes: Mouse IgG2b from hybridoma, Protein-G purified; also called Clone 2C9; DSM ACC 2906
B3: monoclonal antibody 348-1D4 (antibody, V domains shown)
VH: B2 VH
VL: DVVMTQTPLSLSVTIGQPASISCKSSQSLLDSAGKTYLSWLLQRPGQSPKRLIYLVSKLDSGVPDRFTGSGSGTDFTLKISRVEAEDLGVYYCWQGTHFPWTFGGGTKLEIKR
notes: Mouse IgG2b from hybridoma, Protein-G purified; also called Clone 1D4; DSM ACC 2905

Biological target: T1, 09 DAVNAPL
Assay: PepSpot membrane, peptide 1 µg/spot, antibody 1 µg/ml, AP-conjugated anti-mouse detection
Method: (§1) Corresponding PepSpot membranes were prepared by JPT Peptide Technologies GmbH, Berlin (JPT). On these membranes, peptides with the indicated amino acid sequences (see FIG. 3; Z represents pE) were immobilized at a concentration of 1 μg/spot.
(§2) For analysis, membranes were blocked for two hours with TBST-M (=TBST+5% skimmed milk) at room temperature with gentle shaking. Membranes were incubated over night at 4° C. on a rocking platform with the individual MCP-1 N1pE antibody clones diluted to 1 μg/ml in equal volumes of TBST-M. Secondary anti-mouse antibody conjugated with alkaline phosphatase was used for signal detection, following standard procedures.
B1: no binding (tested: 1 µg peptide per spot).
B2: no binding (tested: 1 µg peptide per spot).
B3: no binding (tested: 1 µg peptide per spot).

Biological target: T2, 11 EKLTGPDKAVT
Assay: as above
Method: as §1, §2
B1: no binding (tested: 1 µg peptide per spot).
B2: no binding (tested: 1 µg peptide per spot).
B3: no binding (tested: 1 µg peptide per spot).

Biological target: T3, 07 AQPDAVNAPL
Assay: as above
Method: as §1, §2
B1: no binding (tested: 1 µg peptide per spot).
B2: no binding (tested: 1 µg peptide per spot).
B3: no binding (tested: 1 µg peptide per spot).

Biological target: T4, 16 LAQDALNVPST
Assay: as above
Method: as §1, §2
B1: no binding (tested: 1 µg peptide per spot).
B2: no binding (tested: 1 µg peptide per spot).
B3: no binding (tested: 1 µg peptide per spot).
